Measurements: US20040033229A1
“And” between values parts separate entries of the source, which are not always exact repeats. Identical values can stand only once.

What was measured:
[1] = target: prostate specific membrane antigen (PSMA), full-length, on the cell surface (human) (UniProt Q04609); assay: cell-based or functional assay
[2] = target: prostate specific membrane antigen (PSMA), full-length, on the cell surface (human) (UniProt Q04609); assay: fraction of radiolabel bound to cells, average
[3] = target: prostate specific membrane antigen (PSMA), full-length, on the cell surface (human) (UniProt Q04609); assay: fraction of radiolabel bound to cells, PSMA-3T3

prostate specific membrane antigen (PSMA), full-length, on the cell surface (human), sequence (Q04609 whole entry): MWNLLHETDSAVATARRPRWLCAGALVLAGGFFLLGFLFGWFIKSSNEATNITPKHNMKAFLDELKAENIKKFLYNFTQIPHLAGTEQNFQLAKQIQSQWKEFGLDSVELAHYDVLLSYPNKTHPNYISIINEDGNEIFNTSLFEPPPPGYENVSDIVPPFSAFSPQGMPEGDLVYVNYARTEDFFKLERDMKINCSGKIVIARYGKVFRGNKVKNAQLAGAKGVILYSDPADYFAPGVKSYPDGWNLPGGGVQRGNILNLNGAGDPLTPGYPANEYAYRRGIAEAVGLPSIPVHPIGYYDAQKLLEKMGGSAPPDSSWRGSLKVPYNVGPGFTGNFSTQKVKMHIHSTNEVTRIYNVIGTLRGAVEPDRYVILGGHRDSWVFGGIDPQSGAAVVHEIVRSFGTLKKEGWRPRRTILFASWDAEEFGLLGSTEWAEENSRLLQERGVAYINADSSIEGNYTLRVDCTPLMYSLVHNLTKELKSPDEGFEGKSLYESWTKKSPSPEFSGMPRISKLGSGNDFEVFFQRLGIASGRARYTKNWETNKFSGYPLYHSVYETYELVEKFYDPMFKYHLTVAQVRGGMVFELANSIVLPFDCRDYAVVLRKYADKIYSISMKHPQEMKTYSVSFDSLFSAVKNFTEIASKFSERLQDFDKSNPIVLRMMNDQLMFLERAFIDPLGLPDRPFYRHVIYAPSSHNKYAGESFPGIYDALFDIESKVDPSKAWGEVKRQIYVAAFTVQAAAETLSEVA

Immunoreactivity (%) [2]	Immunoreactivity (%) [3]	Substance	LD50, immunotoxin cytotoxicity (Mab-Zap saporin) on C4-2 cells [1]	LD50, immunotoxin cytotoxicity (Mab-Zap saporin) on PSMA-3T3 cells [1]
		mAb J591 (antibody)	88.2 pM	89 pM
56.7%	58.5% and 54.9%	111In radiolabeled mJ591 (antibody)		
